Measurements as given in patent US20140309177.

Legend:
Assay in all cases: cell_activity
Conditions in all cases: HEK293T luciferase reporter, single TALE-TF
[1] = target: CEACAM5 TALE D TALE-TF (VP64) (synthetic (Xanthomonas TALE)?) (UniProt Q56830)
[2] = test system: CEACAM5 TALE F TALE-TF (VP64) (synthetic (Xanthomonas TALE)?)
[3] = test system: CEACAM5 TALE C TALE-TF (VP64) (synthetic (Xanthomonas TALE)?)
[4] = target: CEACAM5 TALE B TALE-TF (VP64) (synthetic (Xanthomonas TALE)?) (UniProt Q56830)
[5] = target: CEACAM5 TALE E TALE-TF (VP64) (synthetic (Xanthomonas TALE)?) (UniProt Q56830)
[6] = target: IL1RN TALE-A TALE-TF (VP64) (synthetic (Xanthomonas TALE)?) (UniProt Q56830)
[7] = test system: IL1RN TALE-B TALE-TF (VP64) (synthetic (Xanthomonas TALE)?)
[8] = target: IL1RN TALE-D TALE-TF (VP64) (synthetic (Xanthomonas TALE)?) (UniProt P14727)
[9] = test system: IL1RN TALE-C TALE-TF (VP64) (synthetic (Xanthomonas TALE)?)
[10] = target: KLK3 TALE-A TALE-TF (VP64) (synthetic (Xanthomonas TALE)?) (UniProt Q56830)
[11] = test system: KLK3 TALE D TALE-TF (VP64) (synthetic (Xanthomonas TALE)?)
[12] = target: KLK3 TALE E TALE-TF (VP64) (synthetic (Xanthomonas TALE)?) (UniProt Q56830)
[13] = target: KLK3 TALE F TALE-TF (VP64) (synthetic (Xanthomonas TALE)?) (UniProt Q56830)

CEACAM5 promoter reporter (hg19 chr19:42211804-42212651)
activity [1]: 4.59 fold RLA | activity [2]: 4.7 fold RLA | activity [3]: 3.74 fold RLA | activity [4]: 11.6 fold RLA | activity [5]: 2.41 fold RLA

IL1RN promoter reporter (hg19 chr2:113874366-113875462)
activity [6]: 14.4 fold RLA | activity [7]: 12 fold RLA | activity [8]: 5.76 fold RLA | activity [9]: 6.75 fold RLA

KLK3 promoter reporter (hg19 chr19:51357466-51358177)
activity [10]: 25.1 fold RLA | activity [11]: 45.8 fold RLA | activity [12]: 2.17 fold RLA | activity [13]: 4.57 fold RLA
